Results published in patent US20150344570A1 (published 2015).

T1: FcγRIIb extracellular domain with C-terminal His tag (human, UniProt P31994 43-217)
T1 construct: extracellular domain; Soluble receptor expressed in FreeStyle293 cells and used as analyte in Biacore; also called FcgRIIb; 2b; not shown: His tag at the C terminus
T1 sequence (looked up): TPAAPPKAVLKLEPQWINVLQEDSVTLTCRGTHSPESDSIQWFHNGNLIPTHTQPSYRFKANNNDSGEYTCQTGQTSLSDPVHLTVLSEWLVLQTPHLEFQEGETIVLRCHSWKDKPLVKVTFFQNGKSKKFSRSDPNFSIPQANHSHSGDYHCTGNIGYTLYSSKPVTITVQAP


Assays:
[1] = target: T2, FcγRIIIa extracellular domain with C-terminal His tag (human, UniProt P08637 17-208); assay: SPR (Biacore); He/Con for FcγRIIIa divided by He/Con for FcγRIIb
T2 construct: extracellular domain; also called FcgRIIIa; 3a; not shown: His tag at the C terminus
T2 sequence (P08637 17-208): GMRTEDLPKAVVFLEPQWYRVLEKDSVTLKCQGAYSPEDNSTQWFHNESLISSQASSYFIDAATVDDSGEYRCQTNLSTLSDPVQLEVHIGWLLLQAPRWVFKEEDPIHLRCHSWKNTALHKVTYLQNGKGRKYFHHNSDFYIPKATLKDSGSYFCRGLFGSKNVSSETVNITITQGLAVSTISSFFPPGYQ
Experimental: (§1) The heterodimerized antibodies He Abs in which one of the H chains was introduced with an alteration were assayed for their binding activities to each activating FcγR and inhibitory FcγR according to the method described in Example 4. […] The activating FcγRs in FIGS. 26, 27, 28, and 29 are FcγRIa, FcγRIIa (R), FcγRIIa (H), and FcγRIIIa, respectively.
(§2) Analysis of interaction between objective antibody and the FcγR was carried out using Biacore T100 (GE Healthcare). HBS-EP+ (GE Healthcare) was used as the running buffer, and the measurement temperature was set to 25° C. Chips produced by immobilizing the antigen peptide by the amine coupling method to a Series S Sencor Chip CM5 (GE Healthcare), or alternatively, chips produced by allowing preliminarily biotinylated antigen peptides to interact with and immobilize onto a Series S Sensor Chip SA (certified) (GE Healthcare) were used. Antibodies of interest were captured onto an antigen peptide-immobilized chip, and allowed to interact to each FcγR diluted with running buffer. To regenerate and repeatedly use the chip, the antibodies captured on the chip were washed off by reacting 10 mM glycine-HCl, pH 1.5.

[2] = target: T1, FcγRIIb extracellular domain with …; assay: SPR (Biacore), antibody captured on antigen-peptide chip, FcγR as analyte; relative binding amount
Experimental: as §1, §2

[3] = target: T2, FcγRIIIa extracellular domain with …; assay: as above
Experimental: as §1, §2

[4] = target: T3, FcγRIIIa (human, UniProt P08637 17-208); assay: SPR (Biacore), antibody captured on antigen-peptide chip, FcγR as analyte; binding of He Ab / binding of HeCon Ab GpH7-A5/GpH7-B3/GpL16-k0 x 100
T3 construct: extracellular domain; also called 3a; FcgRIIIa
T3 sequence (P08637 17-208): as above

Row | He/Con_3a [4] | Binder | also measured
1 | – | GpH7-A5/GpH7-B3 variant I336_02A/GpL16-k0 (antibody, human IgG1, kappa, Heterodimerized anti-glypican-3 IgG1 (He Ab); The mutation is in the GpH7-B3 chain only; also called He Ab with I336A in GpH7-B3) heavy 1: not shown heavy 2: not shown light: DIVMTQSPLSLPVTPGEPASISCQASESLVHSNRNTYLHWYLQKPGQSPQLLIYKVSNRFSGVPDRFSGSGSGTDFTLKISRVEAEDVGVYYCSQNTHVPPTFGQGTKVEIERTVAAPSVFIFPPSDEQLKSGTASVVCLLNNFYPREAKVQWKVDNALQSGNSQESVTEQDSKDSTYSLSSTLTLSKADYEKHKVYACEVTHQGLSSPVTKSFNRGEC | He_3a/2b (IIIa/IIb) [1]: 1.31 ratio; He/Con_2b (IIb binding) [2]: 84.9 relative, GpH7-A5/GpH7-B3/GpL16-k0 = 100; He/Con_3a (IIIa binding) [3]: 111 relative, GpH7-A5/GpH7-B3/GpL16-k0 = 100
2 | 108 relative to control = 100 | GpH7-A5/GpH7-B3 variant T335_09D/GpL16-k0 (He Ab) (antibody, human IgG1, kappa, Heterodimerized anti-glypican-3 antibody; the alteration stands only in the GpH7-B3 chain) heavy 1: not shown heavy 2: not shown light: DIVMTQSPLSLPVTPGEPASISCQASESLVHSNRNTYLHWYLQKPGQSPQLLIYKVSNRFSGVPDRFSGSGSGTDFTLKISRVEAEDVGVYYCSQNTHVPPTFGQGTKVEIERTVAAPSVFIFPPSDEQLKSGTASVVCLLNNFYPREAKVQWKVDNALQSGNSQESVTEQDSKDSTYSLSSTLTLSKADYEKHKVYACEVTHQGLSSPVTKSFNRGEC | –
3 | 102 relative to control = 100 | GpH7-A5/GpH7-B3 variant T335_08L/GpL16-k0 (He Ab) (antibody, human IgG1, kappa, Heterodimerized anti-glypican-3 antibody; the alteration stands only in the GpH7-B3 chain) heavy 1: not shown heavy 2: not shown light: DIVMTQSPLSLPVTPGEPASISCQASESLVHSNRNTYLHWYLQKPGQSPQLLIYKVSNRFSGVPDRFSGSGSGTDFTLKISRVEAEDVGVYYCSQNTHVPPTFGQGTKVEIERTVAAPSVFIFPPSDEQLKSGTASVVCLLNNFYPREAKVQWKVDNALQSGNSQESVTEQDSKDSTYSLSSTLTLSKADYEKHKVYACEVTHQGLSSPVTKSFNRGEC | –
4 | 113 relative to control = 100 | GpH7-A5/GpH7-B3 variant S324_06M/GpL16-k0 (He Ab) (antibody, human IgG1, kappa, Heterodimerized anti-glypican-3 antibody; the alteration stands only in the GpH7-B3 chain) heavy 1: not shown heavy 2: not shown light: DIVMTQSPLSLPVTPGEPASISCQASESLVHSNRNTYLHWYLQKPGQSPQLLIYKVSNRFSGVPDRFSGSGSGTDFTLKISRVEAEDVGVYYCSQNTHVPPTFGQGTKVEIERTVAAPSVFIFPPSDEQLKSGTASVVCLLNNFYPREAKVQWKVDNALQSGNSQESVTEQDSKDSTYSLSSTLTLSKADYEKHKVYACEVTHQGLSSPVTKSFNRGEC | –
5 | 110 relative to control = 100 | GpH7-A5/GpH7-B3 variant S239_18N/GpL16-k0 (He Ab) (antibody, human IgG1, kappa, Heterodimerized anti-glypican-3 antibody; the alteration stands only in the GpH7-B3 chain) heavy 1: not shown heavy 2: not shown light: DIVMTQSPLSLPVTPGEPASISCQASESLVHSNRNTYLHWYLQKPGQSPQLLIYKVSNRFSGVPDRFSGSGSGTDFTLKISRVEAEDVGVYYCSQNTHVPPTFGQGTKVEIERTVAAPSVFIFPPSDEQLKSGTASVVCLLNNFYPREAKVQWKVDNALQSGNSQESVTEQDSKDSTYSLSSTLTLSKADYEKHKVYACEVTHQGLSSPVTKSFNRGEC | –
6 | 109 relative to control = 100 | GpH7-A5/GpH7-B3 variant S298_03V/GpL16-k0 (He Ab) (antibody, human IgG1, kappa, Heterodimerized anti-glypican-3 antibody; the alteration stands only in the GpH7-B3 chain) heavy 1: not shown heavy 2: not shown light: DIVMTQSPLSLPVTPGEPASISCQASESLVHSNRNTYLHWYLQKPGQSPQLLIYKVSNRFSGVPDRFSGSGSGTDFTLKISRVEAEDVGVYYCSQNTHVPPTFGQGTKVEIERTVAAPSVFIFPPSDEQLKSGTASVVCLLNNFYPREAKVQWKVDNALQSGNSQESVTEQDSKDSTYSLSSTLTLSKADYEKHKVYACEVTHQGLSSPVTKSFNRGEC | –
7 | 135 relative to control = 100 | GpH7-A5/GpH7-B3 variant Y296_20W/GpL16-k0 (He Ab) (antibody, human IgG1, kappa, Heterodimerized anti-glypican-3 antibody; the alteration stands only in the GpH7-B3 chain) heavy 1: not shown heavy 2: not shown light: DIVMTQSPLSLPVTPGEPASISCQASESLVHSNRNTYLHWYLQKPGQSPQLLIYKVSNRFSGVPDRFSGSGSGTDFTLKISRVEAEDVGVYYCSQNTHVPPTFGQGTKVEIERTVAAPSVFIFPPSDEQLKSGTASVVCLLNNFYPREAKVQWKVDNALQSGNSQESVTEQDSKDSTYSLSSTLTLSKADYEKHKVYACEVTHQGLSSPVTKSFNRGEC | –
8 | 108 relative to control = 100 | GpH7-A5/GpH7-B3 variant S337_16H/GpL16-k0 (He Ab) (antibody, human IgG1, kappa, Heterodimerized anti-glypican-3 antibody; the alteration stands only in the GpH7-B3 chain) heavy 1: not shown heavy 2: not shown light: DIVMTQSPLSLPVTPGEPASISCQASESLVHSNRNTYLHWYLQKPGQSPQLLIYKVSNRFSGVPDRFSGSGSGTDFTLKISRVEAEDVGVYYCSQNTHVPPTFGQGTKVEIERTVAAPSVFIFPPSDEQLKSGTASVVCLLNNFYPREAKVQWKVDNALQSGNSQESVTEQDSKDSTYSLSSTLTLSKADYEKHKVYACEVTHQGLSSPVTKSFNRGEC | –
9 | 101 relative to control = 100 | GpH7-A5/GpH7-B3 variant S324_09D/GpL16-k0 (He Ab) (antibody, human IgG1, kappa, Heterodimerized anti-glypican-3 antibody; the alteration stands only in the GpH7-B3 chain) heavy 1: not shown heavy 2: not shown light: DIVMTQSPLSLPVTPGEPASISCQASESLVHSNRNTYLHWYLQKPGQSPQLLIYKVSNRFSGVPDRFSGSGSGTDFTLKISRVEAEDVGVYYCSQNTHVPPTFGQGTKVEIERTVAAPSVFIFPPSDEQLKSGTASVVCLLNNFYPREAKVQWKVDNALQSGNSQESVTEQDSKDSTYSLSSTLTLSKADYEKHKVYACEVTHQGLSSPVTKSFNRGEC | –
